Fewer inactive variants are shown than the library holds.
B1: TPR 5TU (parent)
chain: GGAUCUUCUCGAUCUAACAAAAAAGACAAAUCUGCCACAAAGCUUGAGAGCAUCUUCGGAUGCAGAGGCGGCAGCCUUCGGUGGCGCGAUAGCGCCAACGUUCUCAACUAUGACACGCAAAACGCGUGCUCCGUUGAAUGGAGUUUAUCAUG

Variants of: B1
Assay: polymerase ribozyme fitness, log enrichment relative to wild type (log ratio); higher = more active; in vitro selection for triplet polymerase activity
In short: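 Fitness compares each genotype's enrichment to that of the wild type on a logarithmic scale, averaging replicates with inverse-variance weights. The logarithm is base 2. Enrichment came from Illumina sequencing of input and output libraries after one triplicate round of in vitro selection, which included frozen incubation at −7 °C, of PCR-built, transcribed mutant libraries of each subunit of a heterodimeric triplet polymerase ribozyme. Only genotypes with ≥10 input reads and ≥1 read per output were kept.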
In the case of GGAUCUUCUCGAUCUAACAAUAAAGACAAAUCUGACACAAAGCUUGAGAGCAUCUUCGGAUGCAGAGGCGGCAGCCUUCGGUGGCGCGAUAGCGCCAACGUUCUCUACUAUGACACGCUAAACGCGUGCUCCGUUGACUGGAGUUUAUCAUG [A21U C35A A106U A119U A138C], the “polymerase ribozyme fitness (log ratio)” value is reported as no more than -4.2. With GGAUCUUCUCGAUCUAACAAUAAGGACAAAUCUGCCACAAAGCUUGAGAGCAUCUUCGGAAGCAGAGGCGGCAGCCUUCGUUGGCGCGAUAGCGCCAACGUUCUCAACUAUGACACGCAAAACGCGUGCUCCGUUGAAUGGAGUUUAUCAUG [A21U A24G U61A G81U] the “polymerase ribozyme fitness (log ratio)” value was no more than -4.2. With GGAUCUUCUCGAUCUAACAAUAAAGACAAAUCUGCCACAAAGCUUGAGAGCAUCUUAGGAUGCAGAGGCGGCAGCCUUCGGUGGCGCGAUAGCGCCAACGUUCUCACCUAUGACACGCAAAACGCGUGCUCCGUUGAACGGAGUUUCUCAUG [A21U C57A A107C U139C A147C] the “polymerase ribozyme fitness (log ratio)” value was no more than -4.2. For GGAUCUUCUCGAUCUAACAAUAAAGACACAUCUGCCACAAAGCUUGAGAGCAUCUUCGGAUGCAGAGGCGGCAGCCUUCGGUGGCGCGCUAGCGCCAACGUUCUCAACUAUGACACGCAAAACGCGUGCCCCGUUGAAUUAAGUUUAUCAUG [A21U A29C A89C U130C G140U G141A], the “polymerase ribozyme fitness (log ratio)” value was no more than -4.2. With GGAUCUUCUCGAUCUAACAAUAAAGACAAAUCUGCCACAAAGCUUGAGGGCAUCUUCGGAUGCAGAGGCGGCAGCCUUCGGUGUCGCGAUAGCGCCAACGUUCUCAACUAUGACACGCAAAACGCGUGCUCCGUUGAAUGGAGUGUAUCAUG [A21U A49G G84U U145G] the “polymerase ribozyme fitness (log ratio)” value was -2.57. For GGAUCUUCUCGAUCUAACAAUAAAGACAAAUCUGCCACAAAGCUUGAGAGCAUCUUCGGGUGCACAGGCGGCAGCCUUCGGUGGCGCGAUAGCGCCAACGUUCUCAACUAUGACACGCAAAACGCGUGCUCCGUUGAAUGGAGUUUAUCAUG [A21U A60G G65C], the “polymerase ribozyme fitness (log ratio)” value was -3.98. In the case of GGAUCUUCUCGAUCUAACAAUAAAGAGAAAUCUGCAACAAAGCUUGAGAGCAUCUUCGGAUGCAGAGGCGGCAGCCUUCGGUGGCGCGAUAGCGCCAACGUUCUCAACUAUGACACCCAAAACGCGUGCUCCGUUGAAUGGAGUUUAUCAUG [A21U C27G C36A G117C], the “polymerase ribozyme fitness (log ratio)” value is reported as -4.02. In the case of GGAUCUUCUCGAUCUAACAAUAAAGACAAAUCUGCCACAAAGCUUGAGAGCAUCUUAGGAUGCAGAGGCGGCAGCCUUCGGUGGCGCGAUAGGGCCAACGUUCUCAACUAUGACACGCAAAACGCGUGCUCCGUUGAAUGGCGUUUAUCAUG [A21U C57A C93G A142C], the “polymerase ribozyme fitness (log ratio)” value is reported as -3.67. For GGAUCUUCUCGAUCUAACAAUAAAGACAAAUCUGCCACAAAGCUUGAGAGCAUCUUCGGAUGCAGAGGCGGCAGCCUUCGGUGGCGCGAUAGCGCCAACGUUCUCAAUUAUGACACGCAAAACGCGUGCUCCGUUGAAUGGAGUUUAUCAUG [A21U C108U], the “polymerase ribozyme fitness (log ratio)” value was -3.78. With GGAUCUUCUCGAUCUAACAAUAAAGUCAGAUCUGACACAAAGCUUGAGAGCAUCUUCGGAUGCAGAGGCGGCAGCCUUCGGUGGCUCGAUAGCGCCAACGUUCUCAACUAUGACACGCAAAACGCGUGCUCCGUUGAAUGGAGUUUAUCAUG [A21U A26U A29G C35A G86U] the “polymerase ribozyme fitness (log ratio)” value was -4.04. In the case of GGAUCUUCUCGAUCUAACAAUAAAGACAAAUCUGCCAGAAAGCUUGAGAGCAUCUUCGGAUGCAGAGGCGGCAGCCUUCGGUGACGCGAUAGCGCCAACGUUCUCAACUAUGACACGCAAAACGCGUGCUCCGUUCAAUGGAGUUUAUCAUG [A21U C38G G84A G136C], the “polymerase ribozyme fitness (log ratio)” value is reported as -3.78. For GGAUCUUCUCGAUCUAACAAUAAAGACAAAUCUGCCACAAAGCUUGAGAGCGUCUUCGGAUGCAGAGGCGGCAGCCUUCGGUGGCGCGAUAACGCCAACGUUCUCAACUAUGACACGCAAAACCCGUGCUCCGUUGAAUGGAGUUUAUCAUG [A21U A52G G92A G124C], the “polymerase ribozyme fitness (log ratio)” value was -3.99. With GGAUCUUCUCGAUCUAACAAUAAAGACAAAUCUGCCACAAAGCUUGAGAGCAUAUUCGGAUGCAGAGGCGGCAGCCUUCGGUGGCGCGAUAGCGCCAACGUUCUCAACUAUGACACGCAAAACGCGUGCUCCGUUGAAUGGGGUUUAUCAUG [A21U C54A A142G] the “polymerase ribozyme fitness (log ratio)” value was -2.81. For GGAUCUUCUCGAUCUAACAAUAAAGACAAAUCUUCCACAAAGCUUGAGAGCAUGUUCGGAGGCAGAGGCGGCAGCCUUCGGUGGCGCGAUAGCGCCAACGUUCUCAAGUAUGACACGCAAAACGCGUGCUCCGUUGAAUAGAGUCUAUCAUG [A21U G34U C54G U61G C108G G140A U145C], the “polymerase ribozyme fitness (log ratio)” value was -4.13. In the case of GGAUCUUCUCGAUCUAACAAUAAAGACAAAUUUGCCACAAAGCUUGAGAGCGUCUUCGGAUGCAGAGGCGGCAGCCUUCGGUGGAGCGAUAGCGCCAACGUUCUCAACUAUGACACGCAAAACGCGUGCUCCGUUGAAUGGAGUUUAUCAUG [A21U C32U A52G C85A], the “polymerase ribozyme fitness (log ratio)” value is reported as -4.08. For GGAUCUUCUCGAUCUAACAAUAAAGACAAAUCUGCCACAAAGCUUGAGAGCAUCUUCGGAUGCAGAGGCGGCAGCCUUCGGUGGCGAGAUAGCGCCAACGUUCUCAACUAUGACACGCAAAACGCGUGCUCCGUUGAAUGGAGUUUAUCAUG [A21U C87A], the “polymerase ribozyme fitness (log ratio)” value was -3.82. With GGAUCUUCUCGAUCUAACAAUAAAGACAAAUCUGCCAUAAAGCUUGAGAGCAUCUUCGGAUGGAGAGGCGGCAGCCUUCGGUGUCGCGAUAGCGCCAACGUUCUCAACUAUGACACGCAAAACGCGUGCUCCGUUGAAUGGAGUUUAUCAUG [A21U C38U C63G G84U] the “polymerase ribozyme fitness (log ratio)” value was -0.36. With GGAUCUUCUCGAUCUAACAAUAAAGACAAAUCUGCCACAAAGCUUGAGAGCAUCUUCGGAUGCAGAGGCGGCAGCCUUCGGUGGCGCGAUAGUGCCAACGUUCUCAACUAUGACACGCAAAACGCGUGCUCCGUUGAAUGGAGUUUAUCAUG [A21U C93U] the “polymerase ribozyme fitness (log ratio)” value was -0.752. For GGAUCUUCUCGAUCUAACAAUAAAGACCAAUCUUCCACGAAGCUUGAGAGCAUCUUCGGAUGCAGAGGCGGCAGCCUUCGGUGGCGCGAUAGCGCCAACGUUCUCAACUAUGACACGCAAAACGCGUGCUCCGUUGAAUGGAGUUUAUCAUG [A21U A28C G34U A39G], the “polymerase ribozyme fitness (log ratio)” value was no more than -4.2.

Reference: the RNAGym collection of RNA variant scans (doi:10.1073/pnas.2313332121)
